From paper PMC11847541, “Liver fatty acid binding protein FABP1 transfers substrates to cytochrome P450 4A11 for catalysis” (The Journal of Biological Chemistry, 2025)

Assays:
P450 4A11 [1] = molecular target: T1, P450 4A11 (Homo sapiens, UniProt Q02928); assay: Fluorescence titration of Alexa-FABP1 with P450 4A11; assay type: binding; conditions: 10 mM potassium phosphate pH 7.4, quadratic fit
T1 construct: made in house; host or cells: E. coli
T1 sequence (Q02928 5-519): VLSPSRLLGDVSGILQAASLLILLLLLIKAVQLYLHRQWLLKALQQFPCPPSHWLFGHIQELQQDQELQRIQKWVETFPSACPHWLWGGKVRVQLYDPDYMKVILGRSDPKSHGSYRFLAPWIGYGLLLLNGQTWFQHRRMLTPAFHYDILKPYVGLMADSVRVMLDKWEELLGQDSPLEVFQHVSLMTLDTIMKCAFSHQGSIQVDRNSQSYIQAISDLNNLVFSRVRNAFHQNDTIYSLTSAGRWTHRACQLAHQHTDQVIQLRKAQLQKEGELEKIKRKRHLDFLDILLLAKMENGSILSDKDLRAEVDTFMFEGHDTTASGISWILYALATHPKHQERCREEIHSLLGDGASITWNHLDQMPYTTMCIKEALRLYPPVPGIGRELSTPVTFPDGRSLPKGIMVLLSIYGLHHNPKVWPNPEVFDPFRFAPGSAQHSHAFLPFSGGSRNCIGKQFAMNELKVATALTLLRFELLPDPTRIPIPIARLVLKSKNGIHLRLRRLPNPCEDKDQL
T1 sequence (P07148 with tags, fused parts or gaps partner): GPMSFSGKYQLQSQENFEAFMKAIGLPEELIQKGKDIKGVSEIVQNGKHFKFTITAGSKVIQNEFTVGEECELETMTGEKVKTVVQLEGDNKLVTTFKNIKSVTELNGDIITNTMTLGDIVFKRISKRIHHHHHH
Description: The Alexa-FABP1 construct was tested for P450 binding in a fluorescence titration with P450 4A11.
Figure 10 Binding of Alexa-FABP1 to P450 4A11.A, equilibrium binding titration of Alexa-FABP1 (25 nM) with P450 4A11 as the titrant (0–50 nM). Titrations were performed in 10 mM (closed circles) or 100 mM (open circles) potassium phosphate buffer (pH 7.4). A control reaction was performed with P450 101A1 (P450cam) in 100 mM KPhos (open squares). The change in fluorescence upon protein–protein binding was normalized to the corresponding change in a buffer control. […] Each data point corresponds to one independent replicate, ≥3 biological replicates were collected to confirm the effect. B, kinetics of binding of Alexa-FABP1 (0.125 μM) and P450 4A11 (0.125 μM). Six traces were averaged, and the data were fit to a single exponential curve (in red). The extracted binding rate was 2.0 ± 0.2 s^−1. FABP1, fatty acid binding protein.
Alexa-FABP1 (25 nM [estimated by an asborbance at 280 nm prior to conjugation reaction, accounting for dilution, and assuming no protein loss during the reaction]) was prepared in potassium phosphate buffer (10 mM or 100 mM, pH 7.4) in a 1 ml glass cuvette. A buffer baseline was recorded using an OLIS DM-45 spectrofluorometer (1.24 mm slit width) with excitation wavelength of 470 nm and scanning emission spectra from 500 to 600 nm. P450 4A11 (stored in 100 mM potassium phosphate buffer [pH 7.4] containing 20% glycerol) was titrated (0–50 nM) into the Alexa-FABP1 solution. The same experiment was repeated but with the P450 4A11 buffer used as the titrant to normalize the data for any solvent effect. […] As stimulation was observed by the P450 interaction, the value of one was subtracted from the normalized fluorescence values so that the curve would have an (x, y) intercept of (0, 0). Kd values were calculated fitting plots of the normalized fluorescence at emission maximum versus concentration of P450 4A11 using a quadratic equation in GraphPad Prism software.

[2] = parameters: method as in PMID 2335507; conditions: cited from earlier work
P450 4A11 [3] = molecular target: T1, P450 4A11; assay: Alexa-FABP1 and P450 4A11 association kinetics (stopped-flow fluorescence); assay type: binding
Description: We then investigated whether the rate of protein–protein association could be estimated using our fluorescent construct. A solution of Alexa-FABP1 (125 nM final concentration) was rapidly mixed with P450 4A11 (125 Nm final concentration), and Alexa-488 fluorescence was monitored over time. The data were fit to a single exponential equation and yielded an association rate of 2.0 ± 0.2 s^−1 (Fig. 10B).
To estimate a rate of interaction for FABP1 and P450, we loaded the protein–protein binding data (Fig. 10B) and fit the data to a simple model, E+F↔EF , as described in the Experimental procedures section. The software fit a kon rate of 2.0 × 10^7 M^−1 s^−1, close to that estimated by using the extracted binding rate ∼2 s^−1 at the concentration (0.125 μM) of either reaction component (i.e., 2 s^−1/0.125 μM = 16 μM^−1 s^−1 = 1.6 × 10^7 M^−1 s^−1).
Mixing solutions (2 ml) of (A) Alexa-FABP1 (0.25 μM [estimated by A280 prior to conjugation reaction, accounting for dilution, and assuming no protein loss during the reaction as described earlier]) and (B) P450 4A11 (0.25 μM) were prepared in potassium phosphate buffer (100 mM, pH 7.4) and loaded into the stopped-flow spectrofluorometer described earlier. The instrument (1.24 mm slit width) was set with an excitation wavelength of 470 nm and Oriel end-on filter for emission >495 nm. The fluorescence maximum of Alexa-FABP1 is 510 nm as described earlier, and stimulation is observed upon protein–protein binding (see “Titrations of Alexa-FABP1 with P450 4A11”). At least six replicate measurements were recorded, the spectra were processed such that the fluorescence gain (from DAUDA binding) began at an (x, y) intercept of (0, 0), and the spectra were averaged. A smoothing factor of 0.4 was applied to the data (in Microsoft Excel), and the resulting curve was fit to a single exponential plot in GraphPad Prism, and the rate of association was extracted. The data were loaded into KinTek Explorer and fit to a minimal kinetic model of protein–protein association (i.e., E+F↔EF ), and a second-order rate constant for the association was extracted.

FABP1 = molecular target: T2, FABP1 (Homo sapiens, UniProt P07148); parameters: method as in PMID 10852718; conditions: ADIFAB system; cited from earlier work
T2 construct: GST (N, cleaved yes); made in house; host or cells: Escherichia coli DH5α
T2 sequence (P07148 with tags, fused parts or gaps): T1 sequence (P07148 with tags, fused parts or gaps partner)

rate of protein–protein association (P450 4A11 [3]; Alexa-FABP1 0.125 μM, P450 4A11 0.125 μM, single exponential)	kon of FABP1–P450 4A11 association (k6) (P450 4A11 [3]; KinTek fit to E+F↔EF)	kon of FABP1–P450 4A11 association (P450 4A11 [3]; binding rate ∼2 s^−1 divided by 0.125 μM)	koff of FABP1–P450 4A11 (k-6) (P450 4A11 [3]; calculated from kon and Kd)	Molecule	Kd (P450 4A11 [1])	rate of FABP1 lipid transfer to phospholipid membranes [2]	Kd (FABP1)
~2 s⁻¹	2.0 × 10^7 (k6) M^−1 s^−1	1.6e+07 M⁻¹ s⁻¹	2.4 (k-6) s^−1	FABP1: delipidated recombinant liver fatty acid binding protein with C-terminal hexahistidine tag	~3 nM	~0.005 s⁻¹	
				CCCCCCCCCCCCCCCC(=O)O [Palmitate (C16), palmitate]			60 nM
